The results in this text go back to patent EP4682166A1 (Guangzhou Enmai Biotechnology Co., Ltd, dated 2026).

Experiment [1] addresses T1, NMI-flag overexpressed protein (293T cells transfected with the hNMI-flag plasmid) (human) (UniProt Q13287).
T1 sequence (looked up): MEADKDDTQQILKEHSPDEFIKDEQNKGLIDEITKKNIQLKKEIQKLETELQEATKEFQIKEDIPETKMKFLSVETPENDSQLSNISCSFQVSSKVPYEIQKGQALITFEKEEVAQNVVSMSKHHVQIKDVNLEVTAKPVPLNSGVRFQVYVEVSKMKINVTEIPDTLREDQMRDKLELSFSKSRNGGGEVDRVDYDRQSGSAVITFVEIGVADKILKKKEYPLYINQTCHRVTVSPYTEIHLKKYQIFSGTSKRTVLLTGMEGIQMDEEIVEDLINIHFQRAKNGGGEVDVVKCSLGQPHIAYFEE
Nature of the experiment: sandwich ELISA; detection 94C4-1-biotin; cell lysates of NMI-flag 293T, replicate 2.

For experiment [2], the target named is T1, NMI-flag overexpressed protein (293T cells transfected with the hNMI-flag plasmid) (human). Nature of the experiment: sandwich ELISA; detection 94C4-1-biotin; cell supernatant of NMI-flag 293T, replicate 2.
Experiment [3] deals with T2, human NMI (N-myc Interacting protein), recombinant protein (human, UniProt Q13287 1-307, limits assumed).
T2 construct: Gene ID: 9111; also called hNMI; antigen
T2 sequence (looked up): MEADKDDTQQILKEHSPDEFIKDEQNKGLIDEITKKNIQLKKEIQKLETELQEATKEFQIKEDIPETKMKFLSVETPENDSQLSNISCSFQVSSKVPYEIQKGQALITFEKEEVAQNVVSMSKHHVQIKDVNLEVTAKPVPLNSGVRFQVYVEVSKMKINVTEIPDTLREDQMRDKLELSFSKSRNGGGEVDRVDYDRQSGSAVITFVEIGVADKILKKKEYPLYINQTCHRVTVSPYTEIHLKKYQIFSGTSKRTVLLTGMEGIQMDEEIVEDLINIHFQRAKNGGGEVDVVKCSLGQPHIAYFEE
Briefly: sandwich ELISA; detection 94C4-1-biotin 1µg/mL; hNMI 195.313 pg/mL.

Experiment [4] has as its target T2, human NMI (N-myc Interacting protein), …. Nature of the experiment: sandwich ELISA; detection 39B4-1-biotin; hNMI 1.235 ng/mL.
The target is the same in experiment [5]. Nature of the experiment: sandwich ELISA; detection 94C4-1-biotin 0.5µg/mL; hNMI 781.250 pg/mL.
Experiment [6] has the same target. Nature of the experiment: sandwich ELISA; detection 39B4-1-biotin; hNMI 100.000 ng/mL.
The target is the same in experiment [7]. Nature of the experiment: sandwich ELISA; detection 94C4-1-biotin 0.5µg/mL; hNMI 3,125.000 pg/mL.
Experiment [8] has as its target T1, NMI-flag overexpressed protein (293T cells transfected with the hNMI-flag plasmid) (human). Nature of the experiment: sandwich ELISA; detection 94C4-1-biotin; cell supernatant of NMI-flag 293T, replicate 1.
Experiment [9] concerns the target T2, human NMI (N-myc Interacting protein), …. Briefly: sandwich ELISA; detection 94C4-1-biotin 1µg/mL; hNMI 390.625 pg/mL.
The target is the same in experiment [10]. Nature of the experiment: sandwich ELISA; detection 94C4-1-biotin 1µg/mL; hNMI 3,125.000 pg/mL.
Experiment [11] shares this target. Nature of the experiment: sandwich ELISA; detection 94C4-1-biotin 1µg/mL; hNMI 50,000.000 pg/mL.
Experiment [12] has the same target. Nature of the experiment: sandwich ELISA; detection 98G10-1-biotin; hNMI 3.704 ng/mL.
Experiment [13] has the same target. Briefly: sandwich ELISA; detection 94C4-1-biotin 1µg/mL; hNMI 1,562.500 pg/mL.
The target in experiment [14] is T3, human NMI (N-myc Interacting protein) (human) (UniProt Q13287).
T3 sequence (looked up): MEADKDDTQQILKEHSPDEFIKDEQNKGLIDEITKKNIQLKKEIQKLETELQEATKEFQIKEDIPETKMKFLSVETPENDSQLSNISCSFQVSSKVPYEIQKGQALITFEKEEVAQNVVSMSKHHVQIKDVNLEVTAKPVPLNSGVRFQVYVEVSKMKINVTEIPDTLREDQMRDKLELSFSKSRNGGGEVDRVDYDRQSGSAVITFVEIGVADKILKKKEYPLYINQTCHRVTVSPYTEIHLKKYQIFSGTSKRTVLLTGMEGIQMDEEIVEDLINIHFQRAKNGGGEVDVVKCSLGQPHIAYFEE
Briefly: magnetic-bead chemiluminescent sandwich; capture 98G10 beads, detection acridinium-B-8 (2.0 mg B-8 labelled); hNMI 400 pg/mL.

The target in experiment [15] is T3, human NMI (N-myc Interacting protein) (human). Nature of the experiment: magnetic-bead chemiluminescent sandwich, kit of Example 8-1; capture 98G10 beads, detection acridinium-B-8; series 3, hNMI 200 pg/mL.
Experiment [16] shares this target. Briefly: magnetic-bead chemiluminescent sandwich, kit of Example 8-1; capture 98G10 beads, detection acridinium-B-8; series 2, hNMI 900 pg/mL.
The target is the same in experiment [17]. Nature of the experiment: magnetic-bead chemiluminescent sandwich; capture 98G10 beads, detection acridinium-B-8 (2.0 mg B-8 labelled); hNMI 50 pg/mL.
Experiment [18] shares this target. Nature of the experiment: magnetic-bead chemiluminescent sandwich, kit of Example 8-1; capture 98G10 beads, detection acridinium-B-8; series 1, hNMI 6000 pg/mL.
Experiment [19] shares this target. Nature of the experiment: magnetic-bead chemiluminescent sandwich, kit of Example 8-1; capture 98G10 beads, detection acridinium-B-8; series 2, hNMI 7500 pg/mL.
The target is the same in experiment [20]. Briefly: magnetic-bead chemiluminescent sandwich, kit of Example 8-1; capture 98G10 beads, detection acridinium-B-8; series 2, hNMI 5000 pg/mL.
The target is the same in experiment [21]. Nature of the experiment: magnetic-bead chemiluminescent sandwich; capture 98G10 beads (0.5 mg 98G10), detection acridinium-B-8; hNMI 100 pg/ml.
Experiment [22] shares this target. Briefly: magnetic-bead chemiluminescent sandwich, kit of Example 8-1; capture 98G10 beads, detection acridinium-B-8; series 2, hNMI 1800 pg/mL.
The target is the same in experiment [23]. Briefly: magnetic-bead chemiluminescent sandwich, kit of Example 8-1; capture 98G10 beads, detection acridinium-B-8; series 2, hNMI 3600 pg/mL.
For experiment [24] the target is unchanged. Nature of the experiment: magnetic-bead chemiluminescent sandwich, kit of Example 8-1; capture 98G10 beads, detection acridinium-B-8; series 2, hNMI 10000 pg/mL.

B1: monoclonal antibody B-8 (antibody, V domains shown)
VH: QSLEESGGDLVKPGASLTLTCTASGFSFSSSYYMCWVRQAPGKGLEWIACIYAGSSGSTYYASWAKGRFTISKTSSTTVTLQMTSLTAADTATYFCAREYSYDDYGDFWGFNLWGPGTLVTVSS
VL: ALVMTQTPSSVSAAVGGTVTINCQASQNIYTNLAWYQQKPGQPPKLLIYGASNLESGVPSRFKGSGSGTEYTLTISDLECDDAATYYCQSSLYSRIADRANAFGGGTEVVVK
notes: Rabbit monoclonal antibody; also called B8-1
B1: the OD450 is 2.9 OD450 in experiment [1]; 0.95 OD450 in experiment [2]; 0.173 OD450 in experiment [3]; 0.291 OD450 in [4]; 0.265 OD450 in experiment [5]; 3.07 OD450 in [6]. The OD450 stood at 0.712 OD450 in experiment [7]; 0.897 OD450 in [8]; 0.206 OD450 in experiment [9]; 0.75 OD450 in experiment [10]; 3.11 OD450 in experiment [11]; 0.607 OD450 in experiment [12]. In addition, in experiment [13], the OD450 was 0.446 OD450.

B2: acridinium ester-labeled monoclonal antibody B-8 (antibody, V domains shown)
VH: QSLEESGGDLVKPGASLTLTCTASGFSFSSSYYMCWVRQAPGKGLEWIACIYAGSSGSTYYASWAKGRFTISKTSSTTVTLQMTSLTAADTATYFCAREYSYDDYGDFWGFNLWGPGTLVTVSS
VL: ALVMTQTPSSVSAAVGGTVTINCQASQNIYTNLAWYQQKPGQPPKLLIYGASNLESGVPSRFKGSGSGTEYTLTISDLECDDAATYYCQSSLYSRIADRANAFGGGTEVVVK
modifications: acridinium ester label on the antibody, site not stated
Consider B2, for which the Signal value in [14] amounted to 44600; in experiment [15], 25700; in experiment [16] it was 98500; in experiment [17] it was 6220; in experiment [18], 414000; in experiment [19] it was 900000. The Signal value in experiment [20] was 560000; in experiment [21], 9490; in experiment [22], 181000; in [23], 408000; in [24] it was 1.19e+06.

B3: monoclonal antibody 240B10-1 (antibody, V domains shown)
VH: QSLEESGGRLVTPGGSLTLTCTVSGIDLSSYTMGWVRQAPGKGLEYIGIISGGGRTYYASWAKGRFTISKTSSTTVDLKVTSLTTEDTATYFCARIYTLWGQGTLVTVSS
VL: QVLTQTLASVSAAVGGTVTINCQSSQSVYNNDYLAWFQQKSGQPPKQLIHSASKLASGVPSRFKGSGSGTQFTLTINDVQCDDAATYYCLGGYDCYSADCNVFGGGTEVVVK
notes: Rabbit monoclonal antibody
B3: the OD450 in experiment [3] was determined as 0.212 OD450; in experiment [4], 0.35 OD450; in experiment [5], 0.396 OD450; in [6], 3.12 OD450; in [7] it was 1.29 OD450; in experiment [9], 0.255 OD450. In addition, the OD450 was determined as 0.958 OD450 in [10], 3.1 OD450 in experiment [11], 0.777 OD450 in experiment [12] and 0.568 OD450 in experiment [13].
